Reference: patent US12391751B2, “Antibody against advanced glycation end products and use thereof” (Bloom Technology Corporation, priority 2018, dated 2025)

Legend:
[1] = system: protein modified with the novel structure in human serum; experiment: Western blotting of human serum protein purified with PB-1 antibody column (Example 37); assay type: binding; details: PB-1 as primary antibody; versus secondary antibody only
Method: The solvent for the PB-1 antibody was replaced with a coupling buffer solution (0.2 M sodium carbonate, 0.5 M NaCl, pH 8.3) through a PD10 column (GE Healthcare Japan Corp.) to prepare 1 mL of a 10 mg/mL PB-1 antibody solution. The coupling support used was NHS-activated Sepharose 4 Fast Flow (GE Healthcare Japan Corp.). 10 mL of 1 mM HCl cooled in an ice bath was injected to 1 mL of NHS-activated Sepharose 4 Fast Flow, immediately thereafter mixed with the preliminarily prepared 10 mg/mL PB-1 antibody solution, and mixed by inversion (4° C., overnight) using a rotator (Taitec Corp.) so that the PB-1 antibody was immobilized to the coupling support. Then, 3 mL each of a buffer solution for blocking (0.1 M Tris-HCl, pH 8.0) and a buffer solution for washing (0.1 M sodium acetate, 0.5 M NaCl, pH 5.0) was injected thereto in order, and this operation was repeated three times. Finally, the solvent was replaced by the injection of 10 mL of PBS, followed by storage at 4° C.
The purification sample used was human serum (pool) (Cosmo Bio Co., Ltd.). […] Each fraction obtained by purification was analyzed by electrophoresis (SDS-PAGE) according to a routine method. […]

[2] = molecular target: A-peak-BSA (Bos taurus, UniProt P02769); experiment: Dissociation constant measurement of PB-1, Biacore T200 (Example 26); details: Biacore T200, CM5; ligand A-peak-BSA; PB-1 0.1953 to 50 nM; 1:1 binding model
Sequence of A-peak-BSA (P02769 25-607): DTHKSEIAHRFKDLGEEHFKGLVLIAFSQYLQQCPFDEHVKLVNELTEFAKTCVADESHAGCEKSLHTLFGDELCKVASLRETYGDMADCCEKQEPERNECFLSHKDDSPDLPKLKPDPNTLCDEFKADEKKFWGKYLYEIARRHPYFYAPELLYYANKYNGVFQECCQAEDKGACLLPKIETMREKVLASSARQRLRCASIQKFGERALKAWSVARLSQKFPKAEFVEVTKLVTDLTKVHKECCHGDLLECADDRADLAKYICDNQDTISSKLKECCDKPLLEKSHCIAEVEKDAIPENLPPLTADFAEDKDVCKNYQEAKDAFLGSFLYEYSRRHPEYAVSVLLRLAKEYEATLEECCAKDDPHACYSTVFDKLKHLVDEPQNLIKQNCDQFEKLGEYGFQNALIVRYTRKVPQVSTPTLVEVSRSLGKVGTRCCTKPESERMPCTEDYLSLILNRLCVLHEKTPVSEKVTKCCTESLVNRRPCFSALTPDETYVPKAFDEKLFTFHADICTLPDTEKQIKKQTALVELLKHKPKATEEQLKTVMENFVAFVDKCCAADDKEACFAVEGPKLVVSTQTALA
Method: The dissociation constant (Kd value) of the monoclonal antibody PB-1 was measured by the following approach: A-peak-BSA was diluted with a 10 mM sodium acetate solution (pH 5.0) to prepare a ligand solution with a final concentration of 50 μg/mL. Biacore T200 (GE Healthcare Japan Corp.) was used for the immobilization of the ligand and the calculation of the KD value. The ligand solution was immobilized (final amount immobilized: 72 RU) onto sensor chip CM5 (GE Healthcare Japan Corp.) using an amine coupling kit (GE Healthcare Japan Corp.). Subsequently, PB-1 antibody dilution solutions from 0.1953 to 50 nM were prepared with a running buffer solution HBS-P+ (GE Healthcare Japan Corp.), and a sensorgram was obtained.
1:1 binding was adopted to a fitting model, and the sensorgram was analyzed.

Kd [2]: 4.15 nM
B1: PB-1: mouse monoclonal antibody raised against A-peak-BSA; heavy-chain variable region SEQ ID NO 18, light-chain variable region SEQ ID NO 22 (antibody, listed as Mus musculus, V domains shown)
VH: EVRLQQSGPELVKPGTSVKISCKASGYSFTGYYMHWVKQSPVKSLEWIGRIIPYNGATSYNQNFKDKASLTVDKSSRTAYMDLHSLTSEDSAVYYCARSRYYGRAPYYFDYWGQGTTLTVSS
VL: DVVVTQTPLSLPVSLGDQASISCRSSQSIVHSNGNTYLEWYLQKPGQSPKLLIYKVSNRFSGVPDRISGSGSGTDFTLKISRVEAGDLGVYSCFQGSHVPFTFGSGTKLEIK
protein band detection in Western blotting [1]: a band was detected
